The values below come from the RNAGym collection of RNA variant scans (doi:10.7554/elife.80360).

The labels stand for the following.
B1: HDV Ribozyme (parent)
chain: GGCCGGCAUGGUCCCAGCCUCCUCGCUGGCGCCGGCUGGGCAACAUUCCGAGGGGACCGUCCCCUCGGUAAUGGCGAAUGGGACCCA

Variants of B1 are the subject of the data set. The data set can be described thus: self-cleavage, relative activity (ratio to wild type); higher = more cleavage; co-transcriptional.
As to GGCCGGCAUGGUCCCAGCCUCCUCGCUGGCGCCGGCUGGGCAUCAUUUCGAGGGGACCGUCCCCUCGGUAAUGGCGAAUGGGACCCA [A43U C48U], the self-cleavage amounted to 0.608.
GGCCGGCAUGGUCCCAGCCUCCUCGCUGGCGCCGGCUGGGCAUCAUUCCGAGGGGACCGUCCCCUCGGUAAUGUCGAAUGGGACCCA [A43U G74U]: the self-cleavage was determined as 0.684.
The result for GGCCGGCAUGGUCCCAGCCUCCUCGCUGGCGCCGGCUGGGCAUCAUUCCGAGGGGACCGUCCCCUCGGUAAUGACGAAUGGGACCCA [A43U G74A] reads 0.261; that for GGCCGGCAUGGUCCCAGCCUCCUCGCUGGCGCCGGCUGGGCAUCAUUCCGAGGGGAACGUCCCCUCGGUAAUGGCGAAUGGGACCCA [A43U C57A], 0.69; that for GGCCGGCAUGGUCCCAGCCUCCUCGCUGGCGCCGGCUGGGCAUCAUUCCGAGUGGACCGUCCCCUCGGUAAUGGCGAAUGGGACCCA [A43U G53U], 0.492.
The result for GGCCGGCAUGGUCCCAGCCUCCUCGCUGGCGCCGGCUGGGCAUCAUUCCGAGAGGACCGUCCCCUCGGUAAUGGCGAAUGGGACCCA [A43U G53A] reads 0.407; that for GGCCGGCAUGGUCCCAGCCUCCUCGCUGGCGCCGGCUGGGCAUCAUUCCGAGGGGACCGUCCCCUCGGUAAUGGCGAAUGGGGCCCA [A43U A83G], 0.0986; that for GGCCGGCAUGGUCCCAGCCUCCUCGCUGGCGCCGGCUGGGCAUCAUUCCGAGGGGACCGUCCCCUCGGUAAUGGCGAAUGGGACCAA [A43U C86A], 0.554.
The same measure for GGCCGGCAUGGUCCCAGCCUCCUCGCUGGCGCCGGCUGGGCAUCAUUCCGAGGGGACCGUCCCCUCGGUAAUGGCGACUGGGACCCA [A43U A78C]: 0.0817.
GGCCGGCAUGGUCCCAGCCUCCUCGCUGGCGCCGGCUGGGCAGCAUACCGAGGGGACCGUCCCCUCGGUAAUGGCGAAUGGGACCCA [A43G U47A]: the self-cleavage is 0.383.
As to GGCCGGCAUGGUCCCAGCCUCCUCGCUGGCGCCGGCUGGGCAGCAUUCCGAGGGGACCGUCCCCUCGGUAAUGGCGAAUGAGACCCA [A43G G81A], the self-cleavage is 0.0941.
The result for GGCCGGCAUGGUCCCAGCCUCCUCGCUGGCGCCGGCUGGGCAUUAUUCCGAGGGGACCGUCCCCUCGGUAAUGGCGAAUGGGACCCA [A43U C44U] reads 1.07; that for GGCCGGCAUGGUCCCAGCCUCCUCGCUGGCGCCGGCUGGGCAUGAUUCCGAGGGGACCGUCCCCUCGGUAAUGGCGAAUGGGACCCA [A43U C44G], 0.739.
The result for GGCCGGCAUGGUCCCAGCCUCCUCGCUGGCGCCGGCUGGGCAGCAUUCCGAGGGGACCGUCCCCUCGGUAAUGGCGAAUGGCACCCA [A43G G82C] reads 0.131; that for GGCCGGCAUGGUCCCAGCCUCCUCGCUGGCGCCGGCUGGGCAUCAUUCCGAGGGGACCGUCCCCUCGGUAAUGGCGAAUGGGACCCG [A43U A87G], 0.274; that for GGCCGGCAUGGUCCCAGCCUCCUCGCUGGCGCCGGCUGGGCAUCAUUCCGAGGGGACCGUCCCCUCGGUAAUGGCGAAUGGGACCCC [A43U A87C], 0.314.
The same measure for GGCCGGCAUGGUCCCAGCCUCCUCGCUGGCGCCGGCUGGGCAUCAUUCCGAGGGGACCGUCCCCUCCGUAAUGGCGAAUGGGACCCA [A43U G67C]: 0.354.
Take GGCCGGCAUGGUCCCAGCCUCCUCGCUGGCGCCGGCUGGGCAUCAUUCCGAGGGGACCGUCCCCUCAGUAAUGGCGAAUGGGACCCA [A43U G67A]: the self-cleavage came to 0.237.
On to GGCCGGCAUGGUCCCAGCCUCCUCGCUGGCGCCGGCUGGGCAUCAUUCCGAGGGGACCGUCCCCUCUGUAAUGGCGAAUGGGACCCA [A43U G67U], for which the self-cleavage came to 0.499.
The result for GGCCGGCAUGGUCCCAGCCUCCUCGCUGGCGCCGGCUGGGCAUCAUUCCGCGGGGACCGUCCCCUCGGUAAUGGCGAAUGGGACCCA [A43U A51C] reads 0.525; that for GGCCGGCAUGGUCCCAGCCUCCUCGCUGGCGCCGGCUGGGCAUCAUUCCGUGGGGACCGUCCCCUCGGUAAUGGCGAAUGGGACCCA [A43U A51U], 0.332.
With GGCCGGCAUGGUCCCAGCCUCCUCGCUGGCGCCGGCUGGGCAUCAUUCCGGGGGGACCGUCCCCUCGGUAAUGGCGAAUGGGACCCA [A43U A51G], the self-cleavage came out at 0.911.
As to GGCCGGCAUGGUCCCAGCCUCCUCGCUGGCGCCGGCUGGGCAUCAUUCCGAGGGGACCGUCCCCUCGGUAUUGGCGAAUGGGACCCA [A43U A71U], the self-cleavage came out at 0.565.
The same measure for GGCCGGCAUGGUCCCAGCCUCCUCGCUGGCGCCGGCUGGGCAUCAUUCCGAGGGGACCGUCCCCUCGGUACUGGCGAAUGGGACCCA [A43U A71C]: 0.543; for GGCCGGCAUGGUCCCAGCCUCCUCGCUGGCGCCGGCUGGGCAGCAUUCCGAGGGGACCGUCCCCUCGGUAAUGGCGAAUUGGACCCA [A43G G80U]: 0.0916; for GGCCGGCAUGGUCCCAGCCUCCUCGCUGGCGCCGGCUGGGCAUCAUUCCGAGGGGUCCGUCCCCUCGGUAAUGGCGAAUGGGACCCA [A43U A56U]: 0.475.
The same measure for GGCCGGCAUGGUCCCAGCCUCCUCGCUGGCGCCGGCUGGGCAUCAUUCCGAGGGGCCCGUCCCCUCGGUAAUGGCGAAUGGGACCCA [A43U A56C]: 0.374.
The result for GGCCGGCAUGGUCCCAGCCUCCUCGCUGGCGCCGGCUGGGCAUCAUUCCGAGGGGACCAUCCCCUCGGUAAUGGCGAAUGGGACCCA [A43U G59A] reads 0.633; that for GGCCGGCAUGGUCCCAGCCUCCUCGCUGGCGCCGGCUGGGCAUCAUUCCGAGGGGACCGUCCCAUCGGUAAUGGCGAAUGGGACCCA [A43U C64A], 0.397.
On to GGCCGGCAUGGUCCCAGCCUCCUCGCUGGCGCCGGCUGGGCAUCAUUCCGAGGGGACCGUCCUCUCGGUAAUGGCGAAUGGGACCCA [A43U C63U], for which the self-cleavage was 0.554.
The same measure for GGCCGGCAUGGUCCCAGCCUCCUCGCUGGCGCCGGCUGGGCAUCAUUCCGAGGGGACCGUCCCCUCGGUAAUGGCGAAUGUGACCCA [A43U G81U]: 0.16.
The result for GGCCGGCAUGGUCCCAGCCUCCUCGCUGGCGCCGGCUGGGCAUCAUUCCGAGGGGACCGUCCCCUCGGUAAUGGCGAAUGAGACCCA [A43U G81A] reads 0.148.
